Data as given in the supplement of paper PMC10567573.

B1: TRIM43 (parent)
chain: RAQMIRNEYRKLHPVLHKEEKQHL

Variants of: B1
Assay: protein stability index of a GFP-peptide fusion (GPS, HEK-293T) (PSI 1-6); higher = more stable
Conditions: c terminus: a fixed tail appended
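Also: lentivirally expressed fusions sorted by FACS into six bins by GFP to DsRed ratio, PSI derived from sequencing read proportions per bin multiplied by bin number.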

Variant | protein stability index
RAQMIRNDYRKLHPVLHKEEKQHL [E8D] | 3.21
RAQMIRNPYRKLHPVLHKEEKQHL [E8P] | 2.72
RAQMIRNRYRKLHPVLHKEEKQHL [E8R] | 2.89
RAQMIRNGYRKLHPVLHKEEKQHL [E8G] | 2.84
RAQMIRNKYRKLHPVLHKEEKQHL [E8K] | 2.92
RAQMIRNWYRKLHPVLHKEEKQHL [E8W] | 1.33
RAQMIRNFYRKLHPVLHKEEKQHL [E8F] | 2.91
RAQMIRNTYRKLHPVLHKEEKQHL [E8T] | 2.56
RAQMIRNMYRKLHPVLHKEEKQHL [E8M] | 2.2
RAQMIRNCYRKLHPVLHKEEKQHL [E8C] | 2.59
RAQMIRNNYRKLHPVLHKEEKQHL [E8N] | 3
RAQMIRNVYRKLHPVLHKEEKQHL [E8V] | 2.33
RAQMIRNIYRKLHPVLHKEEKQHL [E8I] | 2.39
RAQMIRNQYRKLHPVLHKEEKQHL [E8Q] | 2.75
RAQMIRNAYRKLHPVLHKEEKQHL [E8A] | 2.16
RAQMIRNYYRKLHPVLHKEEKQHL [E8Y] | 2.51
RAQMIRNSYRKLHPVLHKEEKQHL [E8S] | 2.91
RAQMIRNLYRKLHPVLHKEEKQHL [E8L] | 1.75
RAQMIRNHYRKLHPVLHKEEKQHL [E8H] | 2.78
RAQMWRNEYRKLHPVLHKEEKQHL [I5W] | 2.87
RAQMHRNEYRKLHPVLHKEEKQHL [I5H] | 3.56
RAQMCRNEYRKLHPVLHKEEKQHL [I5C] | 2.02
RAQMDRNEYRKLHPVLHKEEKQHL [I5D] | 4.2
RAQMPRNEYRKLHPVLHKEEKQHL [I5P] | 3.83

Variant | protein stability index
RAQMYRNEYRKLHPVLHKEEKQHL [I5Y] | 2.92
RAQMQRNEYRKLHPVLHKEEKQHL [I5Q] | 3.89
RAQMVRNEYRKLHPVLHKEEKQHL [I5V] | 3.15
RAQMGRNEYRKLHPVLHKEEKQHL [I5G] | 3.79
RAQMLRNEYRKLHPVLHKEEKQHL [I5L] | 3.92
RAQMMRNEYRKLHPVLHKEEKQHL [I5M] | 3.39
RAQMERNEYRKLHPVLHKEEKQHL [I5E] | 4.06
RAQMNRNEYRKLHPVLHKEEKQHL [I5N] | 4.04
RAQMKRNEYRKLHPVLHKEEKQHL [I5K] | 3.21
RAQMARNEYRKLHPVLHKEEKQHL [I5A] | 4.03
RAQMSRNEYRKLHPVLHKEEKQHL [I5S] | 3.67
RAQMIRYEYRKLHPVLHKEEKQHL [N7Y] | 2.74
RAQMIRVEYRKLHPVLHKEEKQHL [N7V] | 2.64
RAQMIRMEYRKLHPVLHKEEKQHL [N7M] | 2.98
RAQMIRDEYRKLHPVLHKEEKQHL [N7D] | 3.35
RAQMIRLEYRKLHPVLHKEEKQHL [N7L] | 3.49
RAQMIRGEYRKLHPVLHKEEKQHL [N7G] | 3.08
RAQMIRAEYRKLHPVLHKEEKQHL [N7A] | 2.39
RAQMIRTEYRKLHPVLHKEEKQHL [N7T] | 3.3
RAQMIRPEYRKLHPVLHKEEKQHL [N7P] | 4.17
RAQMIRHEYRKLHPVLHKEEKQHL [N7H] | 3.28
RAQMIRKEYRKLHPVLHKEEKQHL [N7K] | 3.44
RAQMIRWEYRKLHPVLHKEEKQHL [N7W] | 1.96
RAQMIRCEYRKLHPVLHKEEKQHL [N7C] | 3

Variant | protein stability index
RAQMIRFEYRKLHPVLHKEEKQHL [N7F] | 2.44
RAQMIRQEYRKLHPVLHKEEKQHL [N7Q] | 3.33
RAQMIRIEYRKLHPVLHKEEKQHL [N7I] | 2.57
RAQMIRREYRKLHPVLHKEEKQHL [N7R] | 3.15
RAQMIRSEYRKLHPVLHKEEKQHL [N7S] | 2.83
RAQMIREEYRKLHPVLHKEEKQHL [N7E] | 2.32
RAQMIRNEYRILHPVLHKEEKQHL [K11I] | 2.94
RAQMIRNEYRLLHPVLHKEEKQHL [K11L] | 3.49
RAQMIRNEYRWLHPVLHKEEKQHL [K11W] | 3.14
RAQMIRNEYRCLHPVLHKEEKQHL [K11C] | 2.79
RAQMIRNEYRMLHPVLHKEEKQHL [K11M] | 3.35
RAQMIRNEYRALHPVLHKEEKQHL [K11A] | 3.14
RAQMIRNEYRSLHPVLHKEEKQHL [K11S] | 2.96
RAQMIRNEYRVLHPVLHKEEKQHL [K11V] | 3.4
RAQMIRNEYRPLHPVLHKEEKQHL [K11P] | 4.16
RAQMIRNEYRELHPVLHKEEKQHL [K11E] | 4.15
RAQMIRNEYRNLHPVLHKEEKQHL [K11N] | 3.68
RAQMIRNEYRRLHPVLHKEEKQHL [K11R] | 3.4
RAQMIRNEYRDLHPVLHKEEKQHL [K11D] | 4.29
RAQMIRNEYRTLHPVLHKEEKQHL [K11T] | 3.42
RAQMIRNEYRGLHPVLHKEEKQHL [K11G] | 3.76
RAQMIRNEYRFLHPVLHKEEKQHL [K11F] | 3.24
RAQMIRNEYRQLHPVLHKEEKQHL [K11Q] | 3.51
RAQMIRNEYRYLHPVLHKEEKQHL [K11Y] | 3.07

Variant | protein stability index
RAQMIRNEYRHLHPVLHKEEKQHL [K11H] | 3.94
RAQMIRNEYLKLHPVLHKEEKQHL [R10L] | 3.38
RAQMIRNEYKKLHPVLHKEEKQHL [R10K] | 2.91
RAQMIRNEYFKLHPVLHKEEKQHL [R10F] | 3.4
RAQMIRNEYHKLHPVLHKEEKQHL [R10H] | 3.39
RAQMIRNEYDKLHPVLHKEEKQHL [R10D] | 4.21
RAQMIRNEYPKLHPVLHKEEKQHL [R10P] | 3.76
RAQMIRNEYAKLHPVLHKEEKQHL [R10A] | 3.08
RAQMIRNEYWKLHPVLHKEEKQHL [R10W] | 2.99
RAQMIRNEYCKLHPVLHKEEKQHL [R10C] | 3.19
RAQMIRNEYYKLHPVLHKEEKQHL [R10Y] | 3.31
RAQMIRNEYSKLHPVLHKEEKQHL [R10S] | 3.71
RAQMIRNEYEKLHPVLHKEEKQHL [R10E] | 4.09
RAQMIRNEYNKLHPVLHKEEKQHL [R10N] | 3.66
RAQMIRNEYTKLHPVLHKEEKQHL [R10T] | 3.85
RAQMIRNEYIKLHPVLHKEEKQHL [R10I] | 3.75
RAQMIRNEYGKLHPVLHKEEKQHL [R10G] | 3.26
RAQMIRNEYQKLHPVLHKEEKQHL [R10Q] | 3.84
RAQMIRNEYVKLHPVLHKEEKQHL [R10V] | 3.73
RAQMIRNEYMKLHPVLHKEEKQHL [R10M] | 2.91
RAQMIRNEYRKLHGVLHKEEKQHL [P14G] | 3.11
RAQMIRNEYRKLHDVLHKEEKQHL [P14D] | 3.33
